Data as given in patent US12352767B2, “Method of treating cognitive decline associated with neurological diseases based on a decrease in FLT4 expression or activity” (University of Virginia Patent Foundation, priority 2018, dated 2025).
Residue numbers refer to the chain shown, from its start. Names and notes keep the numbering of the source. “Also recorded” adds a separate entry of the source.

B1: VEGF-C: recombinant human VEGF-C (PeproTech) encapsulated in hyaluronic acid/methylcellulose hydrogel for transcranial delivery (protein, UniProt P49767 112-227, looked up)
Vascular endothelial growth …: AHYNTEILKSIDNEWRKTQCMPREVCIDVGKEFGVATNTFFKPPCVSVYRCGGCCNSEGLQCMNTSTSYLSKTLFEITVPLSQGPKPVTISFANHTSCRCMSKLDVYRQVHSIIRR
modifications: in hyaluronic acid/methylcellulose hydrogel
notes: recombinant human VEGF-C (PeproTech) encapsulated in hyaluronic acid/methylcellulose hydrogel for transcranial delivery
B2: VEGF-C156S: mutant VEGF-C protein that binds specifically to VEGFR3, delivered in hydrogel transcranially (protein, UniProt P49767 112-227, looked up, variant C156S)
Vascular endothelial growth …: B1 Vascular endothelial growth … with C45S
modifications: delivered in hydrogel

Key:
[1] = system: meningeal lymphatic drainage; test: Drainage of CSF tracer (OVA-A647) into deep cervical lymph nodes; format: in vivo, mice
Experimental: (§1) Mice were anaesthetized by intraperitoneal (i.p.) injection of a mixed solution of ketamine (100 mg/Kg) and xylazine (10 mg/Kg) in saline. The skin of the neck was shaved and cleaned with iodine and 70% ethanol, ophthalmic solution placed on the eyes to prevent drying and the mouse's head was secured in a stereotaxic frame. After making a skin incision, the muscle layers were retracted and the cisterna magna exposed. Using a Hamilton syringe (coupled to a 33-gauge needle), the volume of the desired tracer solution was injected into the CSF-filled cisterna magna compartment. For brain CSF influx and lymphatic drainage experiments, 2 or 5 μL of Alexa Fluor® 594 or 647 conjugated OVA (Thermo Fisher Scientific), at 0.5 mg/mL in artificial CSF (#597316, Harvard Apparatus U.K.), were injected at a rate of 2.5 μL/min. After injecting, the syringe was left in place for additional 2 min to prevent back-flow of CSF.

[2] = system: brain parenchyma; test: Brain perfusion/influx by CSF tracer OVA-A647 (brain sections); format: in vivo, mice; conditions: old mice
Experimental: as §1

[3] = system: meningeal lymphatic vessels; test: Meningeal whole-mount immunostaining (LYVE-1/CD31): lymphatic vessel area and diameter, blood vessel coverage
Experimental: Selective ablation of the meningeal lymphatic vessels was achieved by i.c.m. injection and transcranial photoconversion of Visudyne® (verteporfin for injection, Valeant Ophtalmics). Visudyne was reconstituted following manufacturer instructions and 5 μL was injected i.c.m. following the previously described procedure. […] Each spot was irradiated with a light dose of 50 J/cm^2 at an intensity of 600 mW/cm^2 for a total of 83 s. Controls were injected with the same volume of Visudyne (without the photoconversion step) or sterile saline plus photoconversion (vehicle/photoconversion). The scalp skin was then sutured, the mice were subcutaneously injected with ketoprofen (2 mg/Kg) and allowed to recover on a heating pad until fully awake.
A hydrogel of 1.4% hyaluronic acid and 3% methylcellulose alone (vehicle) or with 200 ng/mL of encapsulated human VEGF-C (PeproTech) or VEGF-C156S (R&D Systems) was prepared as described elsewhere^49. Briefly, lyophilized, sterile methylcellulose (4000 cP, Sigma-Aldrich) and sterile hyaluronic acid (1500-1800 kDa, Sigma-Aldrich) were sequentially dissolved in sterile 0.1 M phosphate buffered saline (PBS) at 4° C. overnight. Lyophilized VEGF-C or VEGF-C156S were resuspended as particulate at 2000 ng/mL in 0.5% sterile methylcellulose in PBS. The particulate solution, or vehicle 0.5% methylcellulose, was mixed into the hydrogel pre-solution at 1:10, and loaded into a syringe for gelation at 37° C. […] The hydrogels were prepared on the day of the experiment and kept warm inside the individual syringes until applied onto the mouse's skull. […] An incision was made in the scalp skin and the skull was thinned at the junction of all sinuses and above the transverse sinus. The shear-thinning properties of the polymers allowed the extrusion of 100 μL of each hydrogel solution from the syringe into the thinned skull surface. The scalp skin was then sutured on top of the solidified hydrogel, the mice were subcutaneously injected with ketoprofen (2 mg/Kg) and allowed to recover on a heating pad until fully awake.
Mice were given a lethal dose of anesthetics by intraperitoneal (i.p.) injection of Euthasol (10% v/v in saline). When needed, CSF was collected from the cisterna magna using a 0.5 mm diameter borosilicate glass pipette with internal filament and immediately stored at −80° C. Mice were then transcardially perfused with ice cold PBS with heparin (10 U/mL). Deep cervical lymph nodes were dissected and drop fixed in 4% paraformaldehyde (PFA) for 12 hours at 4° C. After stripping the skin and muscle from the bone the head was collected and drop fixed in 4% PFA. […] The brains were kept in 4% PFA for additional 24 hours (48 hours in total). […]

[4] = system: meningeal lymphatic vessels; conditions: recombinant VEGF-C, previously shown (ref. 4); cited from earlier work
[5] = molecular target: VEGFR3 (Homo sapiens, UniProt P35916); conditions: VEGFR3 vs VEGFR2 (refs. 34, 36); cited from earlier work
Sequence of VEGFR3 (P35916 25-1363, species assumed): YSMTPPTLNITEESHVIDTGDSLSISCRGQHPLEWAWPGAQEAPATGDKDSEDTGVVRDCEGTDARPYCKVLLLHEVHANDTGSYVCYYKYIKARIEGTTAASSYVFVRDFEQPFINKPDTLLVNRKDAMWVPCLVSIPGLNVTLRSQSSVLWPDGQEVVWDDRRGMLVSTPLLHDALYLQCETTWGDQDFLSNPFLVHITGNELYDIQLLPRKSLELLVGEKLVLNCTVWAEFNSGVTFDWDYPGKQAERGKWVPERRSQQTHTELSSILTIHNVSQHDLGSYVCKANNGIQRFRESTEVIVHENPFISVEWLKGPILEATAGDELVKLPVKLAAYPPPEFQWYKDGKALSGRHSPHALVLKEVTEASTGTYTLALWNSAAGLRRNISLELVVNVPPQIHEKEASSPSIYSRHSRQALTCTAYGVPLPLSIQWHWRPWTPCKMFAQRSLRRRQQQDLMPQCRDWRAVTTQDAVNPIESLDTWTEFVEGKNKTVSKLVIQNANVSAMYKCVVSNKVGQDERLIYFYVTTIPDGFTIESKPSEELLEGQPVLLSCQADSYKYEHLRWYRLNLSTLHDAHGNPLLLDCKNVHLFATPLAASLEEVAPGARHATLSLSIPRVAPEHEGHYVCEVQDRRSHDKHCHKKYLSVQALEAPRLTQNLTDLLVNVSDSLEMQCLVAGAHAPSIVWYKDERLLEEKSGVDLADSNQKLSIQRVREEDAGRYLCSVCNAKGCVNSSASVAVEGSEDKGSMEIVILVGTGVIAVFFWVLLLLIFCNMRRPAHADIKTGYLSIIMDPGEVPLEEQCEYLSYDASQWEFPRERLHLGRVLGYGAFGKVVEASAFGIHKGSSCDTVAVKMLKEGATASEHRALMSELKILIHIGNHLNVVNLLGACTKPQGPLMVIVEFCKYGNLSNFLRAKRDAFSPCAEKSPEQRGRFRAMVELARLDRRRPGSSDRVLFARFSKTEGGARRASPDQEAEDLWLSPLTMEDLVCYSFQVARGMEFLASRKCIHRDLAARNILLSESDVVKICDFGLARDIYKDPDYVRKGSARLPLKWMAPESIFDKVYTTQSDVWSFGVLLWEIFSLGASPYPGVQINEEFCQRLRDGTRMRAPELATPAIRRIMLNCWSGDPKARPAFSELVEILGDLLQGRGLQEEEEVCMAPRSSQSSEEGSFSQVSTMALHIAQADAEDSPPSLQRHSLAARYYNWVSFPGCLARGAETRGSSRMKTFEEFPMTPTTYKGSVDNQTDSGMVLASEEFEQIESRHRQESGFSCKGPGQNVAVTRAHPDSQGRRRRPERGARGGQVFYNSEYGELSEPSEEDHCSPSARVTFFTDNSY

Molecule	meningeal lymphatic function (OVA-A647 drainage into dCLNs) ([1]; old mice, transcranial hydrogel VEGF-C vs vehicle)	meningeal lymphatic function (OVA-A647 drainage into dCLNs) ([1]; young-adult mice, transcranial hydrogel VEGF-C)	brain perfusion by CSF macromolecules (OVA-A647 influx) ([2]; transcranial hydrogel VEGF-C)	meningeal lymphatic vessel diameter (superior sagittal sinus) ([3]; young/adult (3 months) and old (20-24 months) mice, hydrogel VEGF-C 200 ng/mL transcranial, 4 weeks, vs vehicle)	diameter of meningeal lymphatic vessels [4]	drainage of tracer from the CSF (OVA-A647 area fraction in dCLNs) ([1]; old mice, transcranial VEGF-C156S vs vehicle)	paravascular influx of tracer into the brain (OVA-A647 area fraction) ([2]; transcranial VEGF-C156S)	receptor binding specificity [5]	meningeal lymphatic diameter (LYVE-1+ vessels, superior sagittal sinus) ([3]; old mice, hydrogel VEGF-C156S 200 ng/mL transcranial vs vehicle)
B1	significant increase; also recorded: increased drainage	did not respond	enhanced brain perfusion; also recorded: significantly increased	increased diameter; also recorded: significant increase	increases the diameter	–	–	–	–
B2	–	–	–	–	–	significant increase	significant increase	binds specifically to VEGFR3 and spares its effects on VEGFR2	significant increase; also recorded: increased diameter
